Laboratory results as given in article PMC10914751 (Nature Communications, 2024).

B1: VprBP (transfected; construct not specified in the text) (natural protein)
chain: not shown
notes: VprBP (DDB1-CUL4-Associated Factor 1); may be full length or a WD40-containing fragment, and in some panels perhaps the endogenous protein; source: HEK293T, transfected, in lysate
B2: VprBP WD40-AR(1057–1507) (domain or fragment)
chain: not shown
notes: source: Trichoplusia ni (Tni)-FNL insect cells, purified (HisTrap, TEV digestion, SEC); not shown: His, N-terminal, cleaved; MBP, N-terminal, cleaved
B3: Vpr (co-expressed with VprBP WD40-AR in insect cells) (natural protein)
chain: MEQAPEDQGPQREPYNEWTLELLEELKSEAVRHFPRIWLHNLGQHIYETYGDTWAGVEAIIRILQQLLFIHFRIGCRHSRIGVTRQRRARNGASRS
notes: also called 11-kDa Vpr
B4: Plk4 CPB(581–808) (domain or fragment, UniProt O00444 581-808, looked up)
chain: GYQNRTLRSITSPLVAHRLKPIRQKTKKAVVSILDSEEVCVELVKEYASQEYVKEVLQISSDGNTITIYYPNGGRGFPLADRPPSPTDNISRYSFDNLPEKYWRKYQYASRFVQLVRSKSPKITYFTRYAKCILMENSPGADFEVWFYDGVKIHKTEDFIQVIEKTGKSYTLKSESEVNSLKEEIKMYMDHANEGHRICLALESIISEEERKTRSAPFFPIIIGRKPG
notes: Polo-like kinase 4 (Plk4), cryptic polo-box (CPB), residues 581-808; a TEV site follows His-MBP and the legends call the protein CPB(581–808); Two CPB chains are estimated for each Vpr•VprBP; source: E. coli, purified

Experiments:
Plk1 = molecular target: T1, Plk1 (UniProt P53350 1-603); assay: co-IP; HEK293T cells transfected with the indicated constructs; TBSN buffer (20 mM Tris-HCl pH 8.0, 120 mM NaCl, 0.5% Nonidet P-40, 5 mM EGTA, 1.5 mM EDTA, 2 mM DTT); immunoblot; Supplementary Fig. 2b under thymidine or nocodazole treatment; conditions: partners not purified
T1 construct: Polo-like kinase 1 (Plk1); also called mitotic Plk1; source: HEK293T, transfected, in lysate
T1 sequence (P53350 whole entry): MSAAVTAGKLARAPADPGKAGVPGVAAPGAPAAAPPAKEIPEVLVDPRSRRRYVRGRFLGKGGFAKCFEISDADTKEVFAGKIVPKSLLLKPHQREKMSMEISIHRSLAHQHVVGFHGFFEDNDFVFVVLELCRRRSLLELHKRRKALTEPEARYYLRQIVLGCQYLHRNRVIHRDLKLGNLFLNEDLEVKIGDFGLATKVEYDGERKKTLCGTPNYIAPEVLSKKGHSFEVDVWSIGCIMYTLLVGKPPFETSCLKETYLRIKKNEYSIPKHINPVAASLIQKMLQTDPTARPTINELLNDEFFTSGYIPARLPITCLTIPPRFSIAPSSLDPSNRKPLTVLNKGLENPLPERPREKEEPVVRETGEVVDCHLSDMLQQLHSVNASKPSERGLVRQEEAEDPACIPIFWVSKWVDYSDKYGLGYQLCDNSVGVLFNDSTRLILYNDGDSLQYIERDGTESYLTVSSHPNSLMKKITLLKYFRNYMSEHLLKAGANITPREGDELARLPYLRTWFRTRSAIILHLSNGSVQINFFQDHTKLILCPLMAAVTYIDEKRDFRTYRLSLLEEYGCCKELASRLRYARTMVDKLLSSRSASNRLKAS

DDB1 (purified) = molecular target: T2, DDB1 (purified) (UniProt Q16531 1-1140); assay: SEC; purified proteins (Vpr, VprBP WD40-AR, Plk4 CPB, DDB1); TEV-digested HisTrap eluate of Vpr•VprBP mixed with Plk4 CPB; 20 mM Tris-HCl pH 7.5, 100 mM NaCl, 10% glycerol; stoichiometry estimated from Coomassie intensity; conditions: both partners purified
T2 construct: DDB1
T2 sequence (Q16531 whole entry): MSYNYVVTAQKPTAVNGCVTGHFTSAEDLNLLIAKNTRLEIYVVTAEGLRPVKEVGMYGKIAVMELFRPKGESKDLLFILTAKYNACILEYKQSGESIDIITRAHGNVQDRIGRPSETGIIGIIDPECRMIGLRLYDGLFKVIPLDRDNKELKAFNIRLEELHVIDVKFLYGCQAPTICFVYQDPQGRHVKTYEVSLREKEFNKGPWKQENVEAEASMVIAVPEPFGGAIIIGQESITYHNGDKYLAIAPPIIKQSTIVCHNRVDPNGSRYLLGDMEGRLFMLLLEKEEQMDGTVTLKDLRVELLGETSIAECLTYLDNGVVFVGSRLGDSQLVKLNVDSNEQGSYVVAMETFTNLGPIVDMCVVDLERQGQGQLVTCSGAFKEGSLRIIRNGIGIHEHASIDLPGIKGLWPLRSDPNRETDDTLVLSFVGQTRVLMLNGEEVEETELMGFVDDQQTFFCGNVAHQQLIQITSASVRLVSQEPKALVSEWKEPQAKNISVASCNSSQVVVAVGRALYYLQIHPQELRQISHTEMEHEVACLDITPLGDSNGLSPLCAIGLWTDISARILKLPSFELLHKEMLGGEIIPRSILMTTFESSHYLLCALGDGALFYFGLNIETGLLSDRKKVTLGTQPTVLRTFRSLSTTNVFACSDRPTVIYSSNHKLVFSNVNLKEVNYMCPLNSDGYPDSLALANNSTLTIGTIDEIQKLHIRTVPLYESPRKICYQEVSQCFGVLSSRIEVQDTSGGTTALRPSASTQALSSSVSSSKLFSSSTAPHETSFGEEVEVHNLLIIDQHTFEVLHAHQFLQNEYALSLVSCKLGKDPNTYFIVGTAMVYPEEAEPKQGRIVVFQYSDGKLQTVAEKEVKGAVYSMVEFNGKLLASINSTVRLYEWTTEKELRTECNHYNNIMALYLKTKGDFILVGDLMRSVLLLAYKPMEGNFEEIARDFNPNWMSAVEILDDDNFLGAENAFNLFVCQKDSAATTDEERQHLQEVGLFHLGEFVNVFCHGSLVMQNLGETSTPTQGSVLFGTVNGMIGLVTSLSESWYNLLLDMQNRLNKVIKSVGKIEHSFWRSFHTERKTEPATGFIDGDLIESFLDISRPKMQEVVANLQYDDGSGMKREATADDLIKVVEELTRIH

Plk4 CPB(581–808) = molecular target: B4; assay: as above; conditions: both partners purified
[1] = molecular target: T3, Vpr•VprBP WD40-AR complex ( | HIV-1 (NL4-3 isolate), UniProt Q9Y4B6 1057-1507; P12520 1-96); assay: as above; conditions: both partners purified
T3 construct: DNA synthesised by GenScript; TEV digestion is told for the SEC sample; also called VprBP (WD40-AR)•Vpr complex; source: Trichoplusia ni (Tni)-FNL insect cells, co-expressed, purified (HisTrap, TEV digestion); not shown: His, N-terminal, cleaved; MBP, N-terminal, cleaved; copies: 1 + 1

B1
fold weaker binding than Plk4 (Plk1): ~3 fold

B2
binding result (DDB1 (purified)): binds

B3
binding result (Plk4 CPB(581–808)): binds

B4
stoichiometry N [1]: ~2
